Data set [1] concerns HMG-box Pf (HMG-box domain of HMGB1) (Plasmodium falciparum). In words: MST. Conditions: MST: 50 nM aptamer with probeFAM (4:1), PBS, room temperature, protein 0.1 nM-2 uM, stopped-flow: SELEX buffer (100 mM NaCl, 1.5 mM KCl, 5 mM MgCl2, 6 mM …).
The target in data set [2] is HMG-box Hs (HMG-box domain of human HMGB1) (Homo sapiens) (UniProt P09429). In words: MST. Conditions: MST: 50 nM aptamer with probeFAM (4:1), PBS, room temperature, protein 0.1 nM-2 uM; stopped-flow: SELEX buffer (100 mM NaCl, 1.5 mM KCl, 5 mM MgCl2, 6 mM …).
Chain of UniProt P09429 (P09429 whole entry, the tested form may be a part): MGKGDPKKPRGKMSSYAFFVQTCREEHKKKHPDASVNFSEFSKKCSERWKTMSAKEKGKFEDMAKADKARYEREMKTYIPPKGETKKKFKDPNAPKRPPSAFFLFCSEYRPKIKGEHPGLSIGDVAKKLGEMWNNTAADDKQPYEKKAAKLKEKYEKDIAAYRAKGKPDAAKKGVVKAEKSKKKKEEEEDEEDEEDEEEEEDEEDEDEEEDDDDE

pKd: −log10 of the molar value.

As for “TAGGGAAGAGAAGGACATATGATACCGACTACGTCAACCTGGGTCTGCTCGGGATTGCGGATGTTGACTAGTACATGACCACTTGA [PfR4]”, the negative-log Kd (pKd) (in general, the Kd on a negative log10 scale, so that one unit is a factor of ten) in data set [1] was 7.39.

Sequence “TAGGGAAGAGAAGGACATATGATACCGACTACGTCAACTTGGGTCTGCTCGGGATTGCGGATGTTGACTAGTACATGACCACTTGA [PfE2]” showed a pKd in data set [1] of 7.26.

Regarding “TAGGGAAGAGAAGGACATATGATAGATGCAAAGGACTGCTCAGGCTTGCGATGGCAGCTTCATTTGACTAGTACATGACCACTTGA [PfR2]”, the pKd in data set [1] was 6.11.

Consider “TAGGGAAGAGAAGGACATATGATAGCCGTGGATTGCAAAGGGCTGCTGTGGCTTAGTTGAATGTTGACTAGTACATGACCACTTGA [PfR5]”, for which, in data set [1], the pKd was 6.25. This pKd and that of the sequence before are within 0.2 log units of each other.

As for “TAGGGAAGAGAAGGACATATGATAGTTTACACCAAGGACTGCTTAGGATTGCGTTAGGGTATTTTGACTAGTACATGACCACTTGA [PfE3]”, the figures for the pKd in data set [1] and in data set [1] (separate S4 experiment) were 6.09 and 6.13, respectively. In data set [2], this sequence showed a fold lower affinity than HMG-box Pf (fold lower affinity than HMG-box Pf) of 10.

In data set [1], “TAGGGAAGAGAAGGACATATGATCACTAGGTCTGCTTAGGATTGCGTAAGTGAAAGTCATTTATTGACTAGTACATGACCACTTGA [PfR3]” showed a pKd of 5.71.

For “TAGGGAAGAGAAGGACATATGATCGCGTGGGTTTGGCTCCGGGCCTGGCGGATGCACGTATAGTTGACTAGTACATGACCACTTGA [PfR6 (PfR6FAM)]”, the pKd in data set [1] and in data set [1] (separate S4 experiment) was 7.19 each time.

In the case of “TAGGGAAGAGAAGGACATATGATGAGAAGGACTGCTTAGGCTTGCGATGTGAAATCTGTAATCTTGACTAGTACATGACCACTTGA [PfR1]”, the pKd in data set [1] is 6.76.

In data set [1], “TAGGGAAGAGAAGGACATATGATGCCGACTACGTCAACCTGGGTCTGCTCGGGATTGCGGATGTTGACTAGTACATGACCACTTGA [PfE1]” had a pKd of 7.09.

(Values after paper PMC6456224.)
